B1: FP17 (Fc fusion)
chain: DKTHTCPPCPAPEAAGAPSVFLFPPKPKDTLMISRTPEVTCVVVDVSHEDPEVKFNWYVDGVEVHNAKTKPREEQQNSTYRVVSVLTVLHQDWLNGKEYKCKVSNKALKAPIEKTISKAKGQPREPQVYTLPPSRDELTKNQVSLTCLVKGFYPSDIAVEWESNGQPENNYKTTPPVLDSDGSFFLYSKLTVDKSRWQQGNVFSCSVMHEALHNHYTQKSLSLSPGGGGSGGGGSGGGGSGGGGSGGGGSGGGGSTALGRRKAEDRIKETLWADGVKIDEKDFEHIKSSHEDYFAVEYGKGSGYYDVNKKMDSEDTALCVGAVVTNMFHWWVDQNRENIEKFKKQDPENNGVMKFNGVKEATVDELNHFYKEYQSNKYADQSRFFDLIKKHFGNKALNPEELFELYFNGFYYGSSHRYIEDNKPAQNNLFSKVLENNKLLNPERSYGIDGFSNNVINALKSHKVLGLVHTTPLRYRHIISMWGADIDQDGKVKAIYVTDSDDREITFNDNSKRRIGMIRYDVLVDDNGNIRFTGKGATHKEEGAIYAGLYSLSRGDEVWEDYFKKYPEVQENL
B2: FP2 (Fc fusion)
chain: DKTHTCPPCPAPEAAGAPSVFLFPPKPKDTLMISRTPEVTCVVVDVSHEDPEVKFNWYVDGVEVHNAKTKPREEQQNSTYRVVSVLTVLHQDWLNGKEYKCKVSNKALKAPIEKTISKAKGQPREPQVYTLPPSRDELTKNQVSLTCLVKGFYPSDIAVEWESNGQPENNYKTTPPVLDSDGSFFLYSKLTVDKSRWQQGNVFSCSVMHEALHNHYTQKSLSLSPGGGGSGGGGSGGGGSTALGRRKAEDRIKETLWADGVKIDEKDFEHIKSSHEDYFAVEYGKGSGYYDVNKKMDSEDTALCVGAVVTNMFHWWVDQNRENIEKFKKQDPENNGVMKFNGVKEATVDELNHFYKEYQSNKYADQSRFFDLIKKHFGNKALNPEELFELYFNGFYYNSSHRYIEDNKPAQNNLFSKVLENNKLLNPERSYGIDGFSNNVINALKSHKVLGLVHTTPLRYRHIISMWGADIDQDGKVKAIYVTDSDDREITFNDNSKRRIGMIRYDVLVDDNGNIRFTGKGATHKEEGAIYAGLYSLSRGDEVWEDYFKKYPEVQENL
B3: FP3 (Fc fusion)
chain: DKTHTCPPCPAPEAAGAPSVFLFPPKPKDTLMISRTPEVTCVVVDVSHEDPEVKFNWYVDGVEVHNAKTKPREEQQNSTYRVVSVLTVLHQDWLNGKEYKCKVSNKALKAPIEKTISKAKGQPREPQVYTLPPSRDELTKNQVSLTCLVKGFYPSDIAVEWESNGQPENNYKTTPPVLDSDGSFFLYSKLTVDKSRWQQGNVFSCSVMHEALHNHYTQKSLSLSPGGGGSGGGGSGGGGSTALGRRKAEDRIKETLWADGVKIDEKDFEHIKSSHEDYFAVEYGKGSGYYDVNKKMDSEDTALCVGAVVTNMFHWWVDQNRENIEKFKKQDPENNGVMKFNGVKEATVDELNHFYKEYQSNKYADQSRFFDLIKKHFGNKALNPEELFELYFNGFYYQSSHRYIEDNKPAQNNLFSKVLENNKLLNPERSYGIDGFSNNVINALKSHKVLGLVHTTPLRYRHIISMWGADIDQDGKVKAIYVTDSDDREITFNDNSKRRIGMIRYDVLVDDNGNIRFTGKGATHKEEGAIYAGLYSLSRGDEVWEDYFKKYPEVQENL
B4: FP6 (Fc fusion)
chain: DKTHTCPPCPAPEAAGAPSVFLFPPKPKDTLMISRTPEVTCVVVDVSHEDPEVKFNWYVDGVEVHNAKTKPREEQQNSTYRVVSVLTVLHQDWLNGKEYKCKVSNKALKAPIEKTISKAKGQPREPQVYTLPPSRDELTKNQVSLTCLVKGFYPSDIAVEWESNGQPENNYKTTPPVLDSDGSFFLYSKLTVDKSRWQQGNVFSCSVMHEALHNHYTQKSLSLSPGGGGSGGGGSGGGGSTALGRRKAEDRIKETLWADGVKIDEKDFEHIKSSHEDYFAVEYGKGSGYYDVNKKMDSEDTALCVGAVVTNMFHWWVDQNRENIEKFKKQDPENNGVMKFEGVKEATVDELNHFYKEYQSNKYADQSRFFDLIKKHFGNKALNPEELFELYFNGFYYQSSHRYIEDNEPAQNNLFSKVLENNKLLNPERSYGIDGFSNNVINALKSHKVLGLVHTTPLTYRHIISMWGADIDQDGKVKAIYVTDSDDREITFNDNSKRRIGMIRYDVLVDDNGNIRFTGKGATHKEEGAIYAGLYSLSRGDEVWEDYFKKYPEVQENL
B5: FP132 (Fc fusion)
chain: DKTHTCPPCPAPEAAGAPSVFLFPPKPKDTLMISRTPEVTCVVVDVSHEDPEVKFNWYVDGVEVHNAKTKPREEQQNSTYRVVSVLTVLHQDWLNGKEYKCKVSNKALKAPIEKTISKAKGQPREPQVYTLPPSRDELTKNQVSLTCLVKGFYPSDIAVEWESNGQPENNYKTTPPVLDSDGSFFLYSKLTVDKSRWQQGNVFSCSVMHEALHNHYTQKSLSLSPGGGGGSGGGGSTALGRRKAEDRIKETLWADGVKIDEKDFEHIKSSHEDYFAVEYGKGSGYYDVNKKMDSEDTALCVGAVVTNMFHWWVDQNRENIEKFKKQDPENNGVMKFEGVKEATVDELNEFYRDNRDNYADQSRFFDLIKKHFGNKALNPEELFELYFNGFYYGSSHRYIEDNEPAQNNLFSKVLENNKLLNPERSYGIDGFSNNVINALKSHKVLGLVYTTPLRYRHIISMWGADIDQDGKVKAIYVTDSDDREITFNDNSKRRIGMIRYDVLVDDNGNIRFTGKGATHKEEGAIYAGLYSLSRGDEVWEDYFKKYPEVQENL
B6: FP11 (Fc fusion)
chain: DKTHTCPPCPAPEAAGAPSVFLFPPKPKDTLMISRTPEVTCVVVDVSHEDPEVKFNWYVDGVEVHNAKTKPREEQQNSTYRVVSVLTVLHQDWLNGKEYKCKVSNKALKAPIEKTISKAKGQPREPQVYTLPPSRDELTKNQVSLTCLVKGFYPSDIAVEWESNGQPENNYKTTPPVLDSDGSFFLYSKLTVDKSRWQQGNVFSCSVMHEALHNHYTQKSLSLSPGGGGSGGGGSGGGGSTALGRRKAEDRIKETLWADGVKIDEKDFEHIKSSHEDYFAVEYGKGSGYYDVNKKMDSEDTALCVGAVVTNMFHWWVDQNRENIEKFKKQDPENNGVMKFEGVKEATVDELNHFYRDNRDNYADQSRFFDLIKKHFGNKALNPEELFELYFNGFYYGSSHRYIEDNEPAQNNLFSKVLENNKLLNPERSYGIDGFSNNVINALKSHKVLGLVHTTPLRYRHIISMWGADIDQDGKVKAIYVTDSDDREITFNDNSKRRIGMIRYDVLVDDNGNIRFTGKGATHKEEGAIYAGLYSLSRGDEVWEDYFKKYPEVQENL
B7: FP121 (Fc fusion)
chain: DKTHTCPPCPAPEAAGAPSVFLFPPKPKDTLMISRTPEVTCVVVDVSHEDPEVKFNWYVDGVEVHNAKTKPREEQQNSTYRVVSVLTVLHQDWLNGKEYKCKVSNKALKAPIEKTISKAKGQPREPQVYTLPPSRDELTKNQVSLTCLVKGFYPSDIAVEWESNGQPENNYKTTPPVLDSDGSFFLYSKLTVDKSRWQQGNVFSCSVMHEALHNHYTQKSLSLSPGGGGSGGGGSGGGGSTALGRRKAEDRIKETLWADGVKIDEKDFEHIKSSHEDYFAVEYGKGSGYYDVNKKMDSEDTALCVGAVVTNMFHWWVDQNRENIEKFKKQDPENNGVMKFEGVKEATVDELNEFYRDNRDNYADQSRFFDLIKKHFGNKALNPEELFELYFNGFYYGSSHRYIEDNEPAQNNLFSKVLENNKLLNPERSYGIDGFSNNVINALKSHKVLGLVYTTPLRYRHIISMWGADIDQDGKVKAIYVTDSDDREITFNDNSKRRIGMIRYDVLVDDNGNIRFTGKGATHKEEGAIYAGLYSLSRGDEVWEDYFKKYPEVQENL
B8: FP14 (Fc fusion)
chain: DKTHTCPPCPAPEAAGAPSVFLFPPKPKDTLMISRTPEVTCVVVDVSHEDPEVKFNWYVDGVEVHNAKTKPREEQQNSTYRVVSVLTVLHQDWLNGKEYKCKVSNKALKAPIEKTISKAKGQPREPQVYTLPPSRDELTKNQVSLTCLVKGFYPSDIAVEWESNGQPENNYKTTPPVLDSDGSFFLYSKLTVDKSRWQQGNVFSCSVMHEALHNHYTQKSLSLSPGGGGSGGGGSGGGGSTALGRRKAEDRIKETLWADGVKIDEKDFEHIKSSHEDYFAVEYGKGSGYYDVNKKMDSEDTALCVGAVVTNMFHWWVDQNRENIEKFKKQDPENNGVMKFEGVKEATVDELNHFYRDNRDNYADQSRFFDLIKKHFGNKALNPEELFELYFNGFYYGSSHRYIEDNEPAQNNLFSKVLENNKLLNPERSYGIDGFSNNVINALKSHKVLGLVYTTPLTYRHIISMWGADIDQDGKVKAIYVTDSDDREITFNDNSKRRIGMIRYDVLVDDNGNIRFTGKGATHKEEGAIYAGLYSLSRGDEVWEDYFKKYPEVQENL
B9: FP12 (Fc fusion)
chain: DKTHTCPPCPAPEAAGAPSVFLFPPKPKDTLMISRTPEVTCVVVDVSHEDPEVKFNWYVDGVEVHNAKTKPREEQQNSTYRVVSVLTVLHQDWLNGKEYKCKVSNKALKAPIEKTISKAKGQPREPQVYTLPPSRDELTKNQVSLTCLVKGFYPSDIAVEWESNGQPENNYKTTPPVLDSDGSFFLYSKLTVDKSRWQQGNVFSCSVMHEALHNHYTQKSLSLSPGGGGSGGGGSGGGGSTALGRRKAEDRIKETLWADGVKIDEKDFEHIKSSHEDYFAVEYGKGSGYYDVNKKMDSEDTALCVGAVVTNMFHWWVDQNRENIEKFKKQDPENNGVMKFEGVKEATVDELNHFYRDNRDNYADQSRFFDLIKKHFGNKALNPEELFELYFNGFYYGSSHRYIEDNEPAQNNLFSKVLENNKLLNPERSYGIDGFSNNVINALKSHKVLGLVYTTPLRYRHIISMWGADIDQDGKVKAIYVTDSDDREITFNDNSKRRIGMIRYDVLVDDNGNIRFTGKGATHKEEGAIYAGLYSLSRGDEVWEDYFKKYPEVQENL
B10: FP15 (Fc fusion)
chain: DKTHTCPPCPAPEAAGAPSVFLFPPKPKDTLMISRTPEVTCVVVDVSHEDPEVKFNWYVDGVEVHNAKTKPREEQQNSTYRVVSVLTVLHQDWLNGKEYKCKVSNKALKAPIEKTISKAKGQPREPQVYTLPPSRDELTKNQVSLTCLVKGFYPSDIAVEWESNGQPENNYKTTPPVLDSDGSFFLYSKLTVDKSRWQQGNVFSCSVMHEALHNHYTQKSLSLSPGGGGSGGGGSGGGGSTALGRRKAEDRIKETLWADGVKIDEKDFEHIKSSHEDYFAVEYGKGSGYYDVNKKMDSEDSALCVGAVVTNMFHWWVDQNRENIEKFKKQDPENNGVMKFEGVKEATVDELNHFYRDNRDNYADQSRFFDLIKKHFGNKALNPEELFELYFNGFYYGSSHRYIEDNEPAQNNLFSKVLENNKLLNPERSYGIDGFSNNVINALKSHKVLGLVHTTPLTYRHIISMWGADIDQDGKVKAIYVTDSDDREITFNDNSKRRIGMIRYDVLVDDNGNIRFTGKGATHKEEGAIYAGLYSLSRGDEVWEDYFKKYPEVQENL

These binders were tested against Human IgE antibody (human) (assay: cell-based or functional assay).
With B1 the “EC50 CE-SDS IgE” value was 56.3 nM. For B2, the “EC50 CE-SDS IgE” value was 212 nM and the “EC50 MSD IgE” value was 140 nM. For B3, the “EC50 CE-SDS IgE” value was 71.5 nM and the “EC50 MSD IgE” value was 114 nM. In the case of B4, the “EC50 MSD IgE” value is reported as 99.4 nM. B5 was tested, and the “EC50 CE-SDS IgE” value was 1.27 nM. In the case of B6, the “EC50 CE-SDS IgE” value is reported as 68.5 nM. In the case of B7, the “EC50 CE-SDS IgE” value is reported as 1.22 nM and the “EC50 MSD IgE” value is reported as 1.25 nM. B8 was tested, and the “EC50 CE-SDS IgE” value was 31.9 nM. In the case of B9, the “EC50 CE-SDS IgE” value is reported as 43.3 nM and the “EC50 MSD IgE” value is reported as 0.753 nM. B10 was tested, and the “EC50 CE-SDS IgE” value was 54.7 nM.

Source: patent US20250340857A1 (SEISMIC THERAPEUTIC, published 2025)
